Data from patent publication US20140004122A1, “METHODS FOR TREATING OR PREVENTING CHOLESTEROL RELATED DISORDERS” (AMGEN INC., priority 2011, published 2014).

Experiments:
[1] = test system: subjects with heterozygous familial hypercholesterolemia (HeFH); experiment: 12 week study in heterozygous familial hypercholesterolemia (Example 22); format: in vivo, human; conditions: preliminary
Procedure: This study is a double-blind, randomized, stratified, placebo-controlled clinical trial evaluating the safety, tolerability, and efficacy of monocloncal antibody 21B12 in subjects having a diagnosis of HeFH. A total enrollment of 150 subjects is planned. […] Randomization will be stratified by screening LDL-C level (<130 mg/dL [3.4 mmol/L] vs≧130 mg/dL) and ezetimibe use at baseline (yes vs no). Randomization should occur within 5-10 days of the screening LDL-C evaluation used to determine eligibility. Monoclonal antibody, 21B12, and placebo will be blinded. Study visits are at weeks 2, 4, 8, and 12. […] The end-of-study (EOS) visit and the last evaluation of lipids is at week 12.
Males and females, ≧18 to ≦75 years of age, and with a diagnosis of heterozygous familial hypercholesterolemia by the diagnostic criteria of the Simon Broome Register Group (SBRG), are eligible for this study. For enrollment, subjects must be on an approved statin, with stable dose(s) for all allowed (eg, ezetimibe, bile-acid sequestering resin, stanols, or regulatory-approved and marketed niacin (eg, Niaspan or Niacor)) lipid-regulating drugs for at least 4 weeks before LDL-C screening and, in the opinion of the investigator, not requiring uptitration. Fasting LDL-C must be ≧100 mg/dL (2.6 mmol/L) and fasting triglycerides ≦400 mg/dL (4.5 mmol/L) by central laboratory at screening.

[2] = test system: subjects with hypercholesterolemia on a statin; experiment: 12 week dose-ranging study in combination with statin (Example 25); format: in vivo, human; conditions: preliminary
Procedure: Randomization will be stratified by screening LDL-C level (<130 mg/dL [3.4 mmol/L] vs≧130 mg/dL) and ezetimibe use at baseline (yes vs no). Randomization should occur within 5-10 days of the screening LDL-C evaluation used to determine eligibility. Study visits are every 2 weeks, irrespective whether the subject receives Q2W SC or Q4W treatment. […] The end-of-study visit and the last estimation of lipids is at week 12 for subjects on Q4W IP schedule and week 14 for subjects on Q2W IP schedule.
Males and females, ≧18 to ≦80 years of age, are eligible for this study. For enrollment, subjects must be on a statin, with or without ezetimibe, with stable dose(s) for at least 4 weeks before LDL-C screening and not requiring uptitration. Fasting LDL-C at screening must be ≧85 mg/dL (2.2 mmol/L). Enrollment of subjects with screening fasting LDL-C between ≧85 mg/dL (2.2 mmol/L) and <100 mg/dL (2.6 mmol/L) will be limited to no more than approximately 20% of total planned enrollment. Fasting triglycerides must be ≦400 mg/dL (4.5 mmol/L) as determined by the central laboratory analysis at screening.

[3] = 350 mg Q4W SC, end of the dosing interval
[4] = 70 mg (Q2W), end of the dosing interval
[5] = 105 mg (Q2W), end of the dosing interval
[6] = 280 mg (Q2W as printed), end of the dosing interval
[7] = 350 mg (Q2W as printed), end of the dosing interval

B1: 21B12: human anti-PCSK9 monoclonal antibody; light/heavy variable region SEQ ID NO 23/49 (antibody, listed as Homo sapiens, V domains shown)
VH: QVQLVQSGAEVKKPGASVKVSCKASGYTLTSYGISWVRQAPGQGLEWMGWVSFYNGNTNYAQKLQGRGTMTTDPSTSTAYMELRSLRSDDTAVYYCARGYGMDVWGQGTTVTVSS
VL: QSALTQPASVSGSPGQSITISCTGTSSDVGGYNSVSWYQQHPGKAPKLMIYEVSNRPSGVSNRFSGSKSGNTASLTISGLQAEDEADYYCNSYTSTSMVFGGGTKLTVL
LS mean percent increase from baseline in HDL-C [1, 3]: 15.39% | LS mean percent reduction from baseline in LDL-C [1, 3]: 38.46% | LS mean percent reduction from baseline in Lp(a) [1, 3]: 21.69% | LS mean percent reduction from baseline in VLDL-C [1, 3]: 17.16% | LS mean percent reduction from baseline in non-HDL cholesterol [1, 3]: 36.16% | LS mean percent reduction from baseline in total cholesterol [1, 3]: 24.82% | LS mean percent reduction from baseline in triglycerides [1, 3]: 17.24% | LS mean percent increase from baseline in HDL-C ([1]; 420 mg Q4W SC): 6.77% | LS mean percent reduction from baseline in LDL-C ([1]; 420 mg Q4W SC): 45.68% | LS mean percent reduction from baseline in Lp(a) ([1]; 420 mg Q4W SC): 28.23% | LS mean percent reduction from baseline in VLDL-C ([1]; 420 mg Q4W SC): 18.49% | LS mean percent reduction from baseline in non-HDL cholesterol ([1]; 420 mg Q4W SC): 41.81% | LS mean percent reduction from baseline in total cholesterol ([1]; 420 mg Q4W SC): 29.45% | LS mean percent reduction from baseline in triglycerides ([1]; 420 mg Q4W SC): 4.56% | LS mean percent increase from baseline in HDL-C [2, 4]: 21.17% | LS mean percent reduction from baseline in LDL-C [2, 4]: 39.22% | LS mean percent reduction from baseline in Lp(a) [2, 4]: 21.17% | LS mean percent reduction from baseline in VLDL-C [2, 4]: 14.84% | LS mean percent reduction from baseline in non-HDL-C [2, 4]: 36.20% | LS mean percent reduction from baseline in total cholesterol [2, 4]: 26.33% | LS mean percent reduction from baseline in triglycerides [2, 4]: 7.20% | LS mean percent increase from baseline in HDL-C [2, 5]: 6.80% | LS mean percent reduction from baseline in LDL-C [2, 5]: 56.38% | LS mean percent reduction from baseline in Lp(a) [2, 5]: 33.41% | LS mean percent reduction from baseline in VLDL-C [2, 5]: 12.75% | LS mean percent reduction from baseline in non-HDL-C [2, 5]: 51.20% | LS mean percent reduction from baseline in total cholesterol [2, 5]: 36.91% | LS mean percent reduction from baseline in triglycerides [2, 5]: 5.65% | LS mean percent increase from baseline in HDL-C ([2]; 140 mg (Q2W)): 8.43% | LS mean percent reduction from baseline in LDL-C ([2]; 140 mg (Q2W)): 68.76% | LS mean percent reduction from baseline in Lp(a) ([2]; 140 mg (Q2W)): 33.87% | LS mean percent reduction from baseline in VLDL-C ([2]; 140 mg (Q2W)): 45.14% | LS mean percent reduction from baseline in non-HDL-C ([2]; 140 mg (Q2W)): 64.61% | LS mean percent reduction from baseline in total cholesterol ([2]; 140 mg (Q2W)): 46.17% | LS mean percent reduction from baseline in triglycerides ([2]; 140 mg (Q2W)): 17.60% | LS mean percent increase from baseline in HDL-C [2, 6]: 2.17% | LS mean percent reduction from baseline in Lp(a) [2, 6]: 22.54% | LS mean percent reduction from baseline in VLDL-C [2, 6]: 18.12% | LS mean percent reduction from baseline in non-HDL-C [2, 6]: 38.89% | LS mean percent reduction from baseline in total cholesterol [2, 6]: 28.08% | LS mean percent reduction from baseline in triglycerides [2, 6]: 6.75% | LS mean percent reduction from baseline in LDL-C ([2]; 280 mg (Q4W), end of the dosing interval): 42.62% | LS mean percent increase from baseline in HDL-C [2, 7]: 6.92% | LS mean percent reduction from baseline in Lp(a) [2, 7]: 29.43% | LS mean percent reduction from baseline in VLDL-C [2, 7]: 20.89% | LS mean percent reduction from baseline in non-HDL-C [2, 7]: 50.83% | LS mean percent reduction from baseline in total cholesterol [2, 7]: 36.04% | LS mean percent reduction from baseline in triglycerides [2, 7]: 9.17% | LS mean percent reduction from baseline in LDL-C ([2]; 350 mg, end of the dosing interval): 56.84% | LS mean percent increase from baseline in HDL-C ([2]; 420 mg (Q2W as printed)): 7.42% | LS mean percent reduction from baseline in Lp(a) ([2]; 420 mg (Q2W as printed)): 23.29% | LS mean percent reduction from baseline in VLDL-C ([2]; 420 mg (Q2W as printed)): 28.66% | LS mean percent reduction from baseline in non-HDL-C ([2]; 420 mg (Q2W as printed)): 48.54% | LS mean percent reduction from baseline in total cholesterol ([2]; 420 mg (Q2W as printed)): 42.76% | LS mean percent reduction from baseline in triglycerides ([2]; 420 mg (Q2W as printed)): 11.13% | LS mean percent reduction from baseline in LDL-C ([2]; 420 mg): 52.19%
